This passage reports percent reduction of binding with 50 µM heparin and Kd results from article PMC3785480.

Test [1] concerns the target recombinant BB0347 (Borrelia burgdorferi). Kind of test: ELISA.
Test [2] shares this target. Description: ELISA; Figure 5, rBB0347 with full-length Fn; which protein was coated is not told; KD = concentration of added protein at half-maximal binding, assuming saturation. A general note: ELISA stands for enzyme-linked immunosorbent assay.

By Kd is commonly meant the constant that tells how readily two partners part at equilibrium. Consider “human fibronectin (from UniProt P02751 32-2477) (natural protein)”, for which the percent reduction of binding with 50 µM heparin in test [1] came out at 40%. Further, the dissociation constant (Kd) in test [2] came to 0.2 µM.
